Test results reported in the RNAGym collection of RNA variant scans (doi:10.1073/pnas.2313332121).
Fewer inactive variants are shown than the library holds.

B1: TPR 5TU (parent)
chain: GGAUCUUCUCGAUCUAACAAAAAAGACAAAUCUGCCACAAAGCUUGAGAGCAUCUUCGGAUGCAGAGGCGGCAGCCUUCGGUGGCGCGAUAGCGCCAACGUUCUCAACUAUGACACGCAAAACGCGUGCUCCGUUGAAUGGAGUUUAUCAUG

Variants of: B1
Test: polymerase ribozyme fitness, log enrichment relative to wild type (log ratio); higher = more active; in vitro selection for triplet polymerase activity
Procedure, shortened: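 Frozen incubation at −7 °C formed the core of a single, triplicate in vitro selection round applied to PCR-built, transcribed mutant libraries of each subunit of a heterodimeric triplet polymerase ribozyme. Extended constructs were gel-excised, captured with streptavidin beads and amplified by RT-PCR, and input and output libraries were Illumina-sequenced with a filter of ≥10 input reads and ≥1 read per output. Fitness is the logarithm of genotype enrichment relative to wild-type enrichment, with inverse-variance-weighted replicate averaging, and the logarithm is base 2.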

Going from GGAUCUUCUCGAUCUAACAAGAAAGACAAAUCUGCCACAAAGCUUGAGAGCAUCUACGGAUGCAGAGGCGGCAGCCUUCGGUGGCGCGAUAGCGCCAACGUUCUCAACUAUGACACGCAAAACGCGUGCUCCGUUGAAUGGAGUUUAUCAUG [A21G U56A] to GGAUCUUCUCGAUCUAACAAGAAAGACAAAUCUGCCACAAAGCUUGAGAGCAUCUACGGAUGCAGACGCGGCAGCCGUCGGUGGCGCAAUAGCGCCAAAGUUCUCAACGAUGACACGCAAAACGCGUGCUCCGUUGAAUGGAGUUUAUCAUG [A21G U56A G67C U77G G88A C99A U109G], the “polymerase ribozyme fitness (log ratio)” value falls from -0.198 to ≤ -4.2.

First: GGAUCUUCUCGAUCUAACAAGAAAGACAAAUCUGCCACAAAGCUUGAGAGCAUCUUCGGAUGCAGAGGCGGCAACCUUCGGUGGCGCGUUAUCGCCAACGUUCUCAACUAUGACACGCAAAACGCGUGCUCCGUUGAAUGGAGUUUAUCAUG [A21G G74A A89U G92U]
Second: GGAUCUUCUCGAUCUAACAAGAAAGACAAAUCUGCCACAAAGCUUGAGAGCAUCUUCGGAUGCAGAGGGGGCAGCCUUCGGAGGCGUGAUAGCGCCAACGUUCUCAACUAUGACACGCAAAACGCGUGCUCCGUUGAAUGGAGUUUAUCAUG [A21G C69G U82A C87U]
The “polymerase ribozyme fitness (log ratio)” value of the first is lower: -3.57 for the first, -1.28 for the second.

Going from GGAUCUUCUCGAUCUAACAAGAAAGACAAAUCUGCCACAAAGCUUGAGACCAUCUUCGGAUGCAGCGGCGGCAGCCUUCGGCGGCCCGAUAGCGCCAACGUUCUCAACUAUGAGACGCACAACGCGUGCUCCGUUGAAUGGAGUUUAUCGUG [A21G G50C A66C U82C G86C C114G A120C A150G] to GGAUCUUCUCGAUCUAACAAGAAAGACAAAUCUGCCACAAAGCUUGAGAGCAUCUUCGCAUGCAGAGGCGGCAGCCUUCGGUGGCGCGAUAGCGCCAACGUGCUCAACUAUGACACGCAAAACACGUGCUCCGUUGAAUGGAGUUUAUCAUG [A21G G59C U102G G124A], the “polymerase ribozyme fitness (log ratio)” value rises from ≤ -4.2 to -3.04.

Going from GGAUCUUCUCGAUCUAACAAGAAAGACAAAUCUGCCACAAAGCUUUAGAGCAUCAUCGGAUGCAGAGGCGGCAGCCUUCGGUGGCGCGAUAGCGCCAACGUUCUCAACUAUGACACGCAAAACGCGUGCUCCGUUGAAUGGAGUUUAUCAGG [A21G G46U U55A U151G] to GGAUCUUCUCGAUCUAACAAGAAAGACAAAUCUGCCACAAAGCUUGAGAGCAUCUUCGGAUGCAGAGGCGGCAGCCUUCGGUGGCGCGAUAGCGCCAACGUUCUCAACUAUGACACGCAAAACCCGUGCUCCGUUGAAUGGAGUUUAUCAUG [A21G G124C], the “polymerase ribozyme fitness (log ratio)” value rises from ≤ -4.2 to -0.489.

First: GGAUCUUCUCGAUCUAACAAGAAAGACAAAGCUGCCAUAAAGCUUGAGAGCAUCUUCGGAUGCAGAGGCGGCCGCCUUCGGUGGCGAGAUAGCGCUAACGUUCUCAACUAUGACACGCAAAACGCGUGCUCCGUUGAAUGGAGUUUAUCAUG [A21G U31G C38U A73C C87A C96U]
Second: GGAUCUUCUCGAUCUAACAAGAAAGACAAAUCUGCCACAAAGCUUGAGAGCAUCUUCGCAUGCAGAGGCGGCAGCCUUCGGUGGUGCGAUAGCGCCAACGUCCUCAACUAUGACAGGCAAAACGCGUGCUCCGAUGAAUGGAGUUUAUCAUG [A21G G59C C85U U102C C116G U134A]
The “polymerase ribozyme fitness (log ratio)” value of the first is lower: ≤ -4.2 for the first, -4.09 for the second.

GGAUCUUCUCGAUCUAACAAGAAACACAAAUCUACCACAAAGCUUGAGAGCAUCUUCGGAUGCAGAGGCGUCAGCCUUCGGUGGCGCGAUAGCGCCAACCUUCUCAUCCAUGACACGCAAUACGCGUGCUCCGUUGAAUGGAGUUUAUCUUG [A21G G25C G34A G71U G100C A107U U109C A121U A150U] and GGAUCUUCUCGAUCUAACAAGAAAGACAAAUCUGCCACAAAGCUUGAGAGCAUCGUCGGAUGCAGAGGCGGCAGCCUUGGGUGGCGCGAUAGCACCAAAGUUCUCAACUAUGACACGCAAAACGCGUGCUCCGUUGAAUGGAGUUUAUCAUG [A21G U55G C79G G94A C99A] cannot be ordered by “polymerase ribozyme fitness (log ratio)” value: ≤ -4.2 for the first, ≤ -4.2 for the second.

Compared with GGAUCUUCUCGAUCUAACAAGAAAGACAAAUCUGCCACAAAGCUUGAGAGCAUCUUCGGAUGCAGAGGCGGCAGUCUUCGGUGGCGCGAUAGCGCCAACGUUCUCAACUAUGACACGCAAAACGCGUGCUCCGUUGAAUGGAGUUUAUCAUG [A21G C75U], GGAUCUUCUCGAUCUAACAAGAAAGACAAAACUGCCACAAGGCUUGAGAGUAUCUUCGGAUGCAGAGGCGGCAGCCUUCGGUGGCGAGAUAGCGCCAACGUUCUCAACUAUGACACGAAAAACGCGUGCUCCGUUGAAAGGAGUUUAUGAUG [A21G U31A A41G C51U C87A C118A U139A C149G] is lower in “polymerase ribozyme fitness (log ratio)” value: 0.894 for the first, ≤ -4.2 for the second.

Going from GGAUCUUCUCGAUCUAACAAGAAAGACAAAUCUGCCACAAAGCUUGAGAGCAUCUUCGGAUGCAGAGGCGGCAGCCUUCGGUGGCGCGAUAGCACCGACGUUCUCAACUAUGACACGCAAAACGCGUGCUCCGUUGGAUGGAGUUUAUCAUG [A21G G94A A97G A137G] to GGAUCUUCUCGAUCUAACAAGAAAUACAAAUCUGCCACAAAGCUUGAGAGCAUCUACGGAUGCAGAGGCGGCAGCCUUCGGUGGUGCGAUAGCUCCAACGUUCUCAACUAUGACACGCAAAAUGCGUGCUCCGUUGAAUGGAGUUUAUCAUG [A21G G25U U56A C85U G94U C123U], the “polymerase ribozyme fitness (log ratio)” value falls from -2.22 to -2.71.

Compared with GGAUCUUCUCGAUCUAACAAGAAAGACAAAUCUGCCACAAAGCUUGAGAGCAUCUUCGGAUGCAGAGGCGGCAGUCUUCGGUGGCGCGAUAGCGCCAACGUUCUCAACUAUGACACGCAGAACGCGUGCUCCGUUGAAUGGAGUUUAUCAUG [A21G C75U A120G], GGAUCUUCUCGAUCUAACAAGAAAGACAAAUCUGCCACAAAACUUGAGAGCAUCUUCGGAUGCAGAGGCGGCAGCCUUCGGUGGCGCGAUAGUGCCAACGUUCUCAACUCUGACACGCAAAACGCGUGCUCCGUUGAAUGGAGUUUAUCAUG [A21G G42A C93U A110C] is lower in “polymerase ribozyme fitness (log ratio)” value: 0.879 for the first, ≤ -4.2 for the second.

For GGAUCUUCUCGAUCUAACAAGAAAGACAAAUCUGCCACAAAGCUUGAGAGCAUCUUCGGAUGCAGAGGCGGCAGCCUUCGGUGACGCGAUAGCGCCAACGUUCUCAACUAUGACACGCAAAACGCGUGCUCCGUUGCAUGGAGUUUAUCAUG [A21G G84A A137C], the “polymerase ribozyme fitness (log ratio)” value was -3.28.
